B1: Mothers against decapentaplegic homolog 4 (Homo sapiens), Q13485 (parent)
chain: MDNMSITNTPTSNDACLSIVHSLMCHRQGGESETFAKRAIESLVKKLKEKKDELDSLITAITTNGAHPSKCVTIQRTLDGRLQVAGRKGFPHVIYARLWRWPDLHKNELKHVKYCQYAFDLKCDSVCVNPYHYERVVSPGIDLSGLTLQSNAPSSMMVKDEYVHDFEGQPSLSTEGHSIQTIQHPPSNRASTETYSTPALLAPSESNATSTANFPNIPVASTSQPASILGGSHSEGLLQIASGPQPGQQQNGFTGQPATYHHNSTTTWTGSRTAPYTPNLPHHQNGHLQHHPPMPPHPGHYWPVHNELAFQPPISNHPAPEYWCSIAYFEMDVQVGETFKVPSSCPIVTVDGYVDPSGGDRFCLGQLSNVHRTEAIERARLHIGKGVQLECKGEGDVWVRCLSDHAVFVQSYYLDREAGRAPGDAVHKIYPSAYIKVFDLRQCHRQMQQQAATAQAAAAAQAAAVAGNIPGPGSVGGIAPAISLSAAAGIGVDDLRRLCILRMSFVKGWGPDYPRQSIKETPCWIEIHLHRALQLLDEVLHTMPIADPQPLD
partner: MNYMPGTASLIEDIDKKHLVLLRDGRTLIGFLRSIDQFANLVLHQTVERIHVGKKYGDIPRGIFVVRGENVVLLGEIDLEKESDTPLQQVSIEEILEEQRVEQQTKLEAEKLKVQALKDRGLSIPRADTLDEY
B2: Mothers against decapentaplegic homolog 4 (Homo sapiens), Q13485 (parent)
chain: B1 chain
partner: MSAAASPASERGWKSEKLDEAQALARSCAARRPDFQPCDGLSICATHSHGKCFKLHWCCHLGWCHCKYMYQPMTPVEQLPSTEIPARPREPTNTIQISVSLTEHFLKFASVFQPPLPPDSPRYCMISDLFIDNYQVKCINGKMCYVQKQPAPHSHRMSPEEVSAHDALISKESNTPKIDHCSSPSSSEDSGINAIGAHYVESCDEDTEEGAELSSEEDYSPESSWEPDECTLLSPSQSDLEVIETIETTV
B3: Mothers against decapentaplegic homolog 4 (Homo sapiens), Q13485 (parent)
chain: B1 chain
partner: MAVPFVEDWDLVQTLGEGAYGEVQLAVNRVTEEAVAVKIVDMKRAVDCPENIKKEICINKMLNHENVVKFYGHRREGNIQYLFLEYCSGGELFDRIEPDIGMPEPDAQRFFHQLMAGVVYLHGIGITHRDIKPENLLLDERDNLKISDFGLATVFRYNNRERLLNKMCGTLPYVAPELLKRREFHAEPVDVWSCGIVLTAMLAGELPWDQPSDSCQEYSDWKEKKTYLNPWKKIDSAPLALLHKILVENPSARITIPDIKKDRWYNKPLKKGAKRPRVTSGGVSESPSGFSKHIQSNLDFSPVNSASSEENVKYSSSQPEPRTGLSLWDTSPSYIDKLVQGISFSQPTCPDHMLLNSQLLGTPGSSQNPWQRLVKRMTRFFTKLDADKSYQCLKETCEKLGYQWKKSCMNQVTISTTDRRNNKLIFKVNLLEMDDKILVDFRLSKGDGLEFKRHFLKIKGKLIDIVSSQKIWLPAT
B4: Mothers against decapentaplegic homolog 4 (Homo sapiens), Q13485 (parent)
chain: B1 chain
partner: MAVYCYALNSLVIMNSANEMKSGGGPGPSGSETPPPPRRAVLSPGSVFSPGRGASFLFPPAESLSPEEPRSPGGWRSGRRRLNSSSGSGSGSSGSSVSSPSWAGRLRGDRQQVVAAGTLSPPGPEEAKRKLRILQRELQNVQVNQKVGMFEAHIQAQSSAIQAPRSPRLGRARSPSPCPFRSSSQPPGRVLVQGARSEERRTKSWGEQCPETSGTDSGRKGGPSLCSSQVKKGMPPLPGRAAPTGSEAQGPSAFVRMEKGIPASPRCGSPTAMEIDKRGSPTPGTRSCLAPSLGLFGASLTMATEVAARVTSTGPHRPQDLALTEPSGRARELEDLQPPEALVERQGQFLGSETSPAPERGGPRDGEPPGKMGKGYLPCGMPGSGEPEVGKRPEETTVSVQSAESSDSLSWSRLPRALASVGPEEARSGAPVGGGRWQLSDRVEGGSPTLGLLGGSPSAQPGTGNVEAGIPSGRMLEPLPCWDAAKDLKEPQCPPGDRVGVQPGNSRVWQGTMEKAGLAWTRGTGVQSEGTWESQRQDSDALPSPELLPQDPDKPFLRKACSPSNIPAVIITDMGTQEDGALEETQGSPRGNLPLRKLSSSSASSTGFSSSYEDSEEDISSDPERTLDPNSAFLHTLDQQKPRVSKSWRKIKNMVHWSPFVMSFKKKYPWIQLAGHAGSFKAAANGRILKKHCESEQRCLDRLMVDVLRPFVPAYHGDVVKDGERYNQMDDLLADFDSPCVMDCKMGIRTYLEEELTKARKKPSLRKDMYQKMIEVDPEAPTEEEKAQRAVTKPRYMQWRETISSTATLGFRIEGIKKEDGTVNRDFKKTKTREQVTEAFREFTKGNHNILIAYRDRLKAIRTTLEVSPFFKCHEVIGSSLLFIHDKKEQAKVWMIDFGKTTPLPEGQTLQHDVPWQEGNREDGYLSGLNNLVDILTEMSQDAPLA
B5: Mothers against decapentaplegic homolog 4 (Homo sapiens), Q13485 (parent)
chain: B1 chain
partner: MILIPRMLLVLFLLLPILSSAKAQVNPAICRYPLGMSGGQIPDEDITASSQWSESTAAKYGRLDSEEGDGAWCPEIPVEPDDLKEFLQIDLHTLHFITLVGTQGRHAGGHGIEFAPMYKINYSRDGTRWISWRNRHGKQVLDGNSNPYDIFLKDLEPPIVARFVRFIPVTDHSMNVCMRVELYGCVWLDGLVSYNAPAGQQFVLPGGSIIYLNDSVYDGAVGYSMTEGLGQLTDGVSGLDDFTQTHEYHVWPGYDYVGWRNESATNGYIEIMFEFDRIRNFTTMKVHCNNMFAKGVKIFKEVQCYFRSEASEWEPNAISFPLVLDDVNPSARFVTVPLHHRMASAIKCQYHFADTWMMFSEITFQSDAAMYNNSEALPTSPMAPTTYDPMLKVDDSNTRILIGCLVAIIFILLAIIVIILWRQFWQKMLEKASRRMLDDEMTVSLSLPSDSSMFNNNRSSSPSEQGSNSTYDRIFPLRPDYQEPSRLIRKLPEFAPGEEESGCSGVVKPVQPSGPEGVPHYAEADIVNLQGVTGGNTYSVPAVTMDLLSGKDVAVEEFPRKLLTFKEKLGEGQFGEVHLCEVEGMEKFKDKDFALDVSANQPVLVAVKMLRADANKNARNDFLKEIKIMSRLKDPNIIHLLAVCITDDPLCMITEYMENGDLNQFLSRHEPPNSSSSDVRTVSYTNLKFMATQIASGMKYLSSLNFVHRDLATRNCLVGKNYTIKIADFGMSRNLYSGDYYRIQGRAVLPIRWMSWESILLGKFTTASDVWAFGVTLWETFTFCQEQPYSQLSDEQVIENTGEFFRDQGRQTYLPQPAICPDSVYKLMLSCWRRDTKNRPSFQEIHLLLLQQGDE
B6: Mothers against decapentaplegic homolog 4 (Homo sapiens), Q13485 (parent)
chain: B1 chain
partner: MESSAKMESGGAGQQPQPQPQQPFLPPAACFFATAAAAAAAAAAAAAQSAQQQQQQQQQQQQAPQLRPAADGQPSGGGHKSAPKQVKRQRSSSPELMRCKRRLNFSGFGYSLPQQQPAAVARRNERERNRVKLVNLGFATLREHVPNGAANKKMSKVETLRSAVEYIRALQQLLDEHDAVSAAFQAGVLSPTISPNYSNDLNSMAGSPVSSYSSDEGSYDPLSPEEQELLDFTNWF

Variants of: B1
Settings: with lsm1_human LSM1, O15116

| Variant | effect of a mutation on the interaction |
| --- | --- |
| R361H | with no effect |

Variants of: B1
Settings: with lsm1_human LSM1, O15116
Remark: another data set of the same source

| Variant | effect of a mutation on the interaction |
| --- | --- |
| R361C | with no effect |

Variants of: B1
Settings: with lsm1_human LSM1, O15116
Remark: another data set of the same source

| Variant | effect of a mutation on the interaction |
| --- | --- |
| D351H | with no effect |

Variants of: B2
Settings: with cc070_human C3orf70, A6NLC5

| Variant | effect of a mutation on the interaction |
| --- | --- |
| R361H | with no effect |

Variants of: B2
Settings: with cc070_human C3orf70, A6NLC5
Remark: another data set of the same source

| Variant | effect of a mutation on the interaction |
| --- | --- |
| R361C | with no effect |

Variants of: B2
Settings: with cc070_human C3orf70, A6NLC5
Remark: another data set of the same source

| Variant | effect of a mutation on the interaction |
| --- | --- |
| G386D | with no effect |

Variants of: B2
Settings: with cc070_human C3orf70, A6NLC5
Remark: another data set of the same source

| Variant | effect of a mutation on the interaction |
| --- | --- |
| D351H | with no effect |

Variants of: B3
Settings: with chk1_human CHEK1, O14757

| Variant | effect of a mutation on the interaction |
| --- | --- |
| D351H | with no effect |

Variants of: B3
Settings: with chk1_human CHEK1, O14757
Remark: another data set of the same source

| Variant | effect of a mutation on the interaction |
| --- | --- |
| G386D | with no effect |

Variants of: B3
Settings: with chk1_human CHEK1, O14757
Remark: another data set of the same source

| Variant | effect of a mutation on the interaction |
| --- | --- |
| R361C | with no effect |

Variants of: B3
Settings: with chk1_human CHEK1, O14757
Remark: another data set of the same source

| Variant | effect of a mutation on the interaction |
| --- | --- |
| R361H | with no effect |

Variants of: B4
Settings: with ip3kb_human ITPKB

| Variant | effect of a mutation on the interaction |
| --- | --- |
| R361H | with no effect |

Variants of: B4
Settings: with ip3kb_human ITPKB
Remark: another data set of the same source

| Variant | effect of a mutation on the interaction |
| --- | --- |
| R361C | with no effect |

Variants of: B4
Settings: with ip3kb_human ITPKB
Remark: another data set of the same source

| Variant | effect of a mutation on the interaction |
| --- | --- |
| D351H | with no effect |

Variants of: B4
Settings: with ip3kb_human ITPKB
Remark: another data set of the same source

| Variant | effect of a mutation on the interaction |
| --- | --- |
| G386D | with no effect |

Variants of: B5
Settings: with ddr2_human DDR2, Q16832

| Variant | effect of a mutation on the interaction |
| --- | --- |
| R361H | with no effect |

Variants of: B5
Settings: with ddr2_human DDR2, Q16832
Remark: another data set of the same source

| Variant | effect of a mutation on the interaction |
| --- | --- |
| R361C | with no effect |

Variants of: B5
Settings: with ddr2_human DDR2, Q16832
Remark: another data set of the same source

| Variant | effect of a mutation on the interaction |
| --- | --- |
| D351H | with no effect |

Variants of: B5
Settings: with ddr2_human DDR2, Q16832
Remark: another data set of the same source

| Variant | effect of a mutation on the interaction |
| --- | --- |
| G386D | with no effect |

Variants of: B6
Settings: with ascl1_human ASCL1, P50553

| Variant | effect of a mutation on the interaction |
| --- | --- |
| D351H | with no effect |

Variants of: B6
Settings: with ascl1_human ASCL1, P50553
Remark: another data set of the same source

| Variant | effect of a mutation on the interaction |
| --- | --- |
| R361C | with no effect |

Variants of: B6
Settings: with ascl1_human ASCL1, P50553
Remark: another data set of the same source

| Variant | effect of a mutation on the interaction |
| --- | --- |
| R361H | with no effect |

Variants of: B6
Settings: with ascl1_human ASCL1, P50553
Remark: another data set of the same source

| Variant | effect of a mutation on the interaction |
| --- | --- |
| G386D | with no effect |
